Legend:
[1] = Direct ELISA antigen binding of humanized anti-MBG; details: 2 μg/ml MBG-conjugated BSA coated; OD 450 nm; among the 6 humanized antibodies; FIG. 1a, 1b
Method: The antigen binding of humanized anti-MGB was assayed in a direct Elisa assay. 2 μg/ml of MBG-conjugated BSA was coated in the Elisa plate. After blocking with 1% BSA, 2-fold dilution series of humanized anti-MBG was added to the plate. After washing, the bound antibody was detected by adding anti-human Fc HRP conjugate, and quantified by adding the TMB substrate. OD absorption at 450 nm was measured in a microplate reader.

[2] = Competitive ELISA, relative CTS specificity, free MBG as competitor; assay type: binding; details: competition with immobilized MBG-BSA; normalized to MBG = 100%
Method: (§1) The specificity (relative affinity) of anti-MBG antibodies for MBG relative to various cardiotonic steroids (CTSs) was determined in a competitive ELISA. Each anti-MBG antibody was tested for its binding to immobilized MBG in the presence of free MBG, resibufogenin (RBG), cinobufagin (CINO), ouabain (OUB) or digoxin (DIG) as a competitor. A constant amount of an anti-MBG antibody (typically 1-5 μg/mL) and varying concentrations of each CTS (from 10^−12M to 10^−5M) were pre-incubated before being added to the MBG-BSA-coated wells. After washing of the wells, an anti-human Fc, HRP-conjugated secondary antibody (at 1:5000 dilution) was added to the wells and incubated at 37° C. for 1 hr. After washing of the wells, an appropriate HRP reagent (e.g., TMB ultra, Thermo Fisher) was added to the wells. OD at 450 nm was measured by a microplate reader. MBG at 10 μM was assumed to be 100% competed, and MBG at 1 pM was assumed to be 0% competed. The data was plotted as a titration of antibody-antigen binding relative to free CTS concentration in the competition reaction to determine the free CTS concentration (μM) giving 50% maximal binding of antibody to immobilized MBG. The relative specificity of an antibody for a CTS was normalized to MBG=100%.

[3] = Competitive ELISA, relative CTS specificity, RBG as competitor; assay type: binding; details: competition with immobilized MBG-BSA; normalized to MBG = 100%
Method: as §1

[4] = Competitive ELISA, relative CTS specificity, CINO as competitor; assay type: binding; details: competition with immobilized MBG-BSA; normalized to MBG = 100%
Method: as §1

[5] = Competitive ELISA, relative CTS specificity, OUB as competitor; assay type: binding; details: competition with immobilized MBG-BSA; normalized to MBG = 100%
Method: as §1

[6] = Competitive ELISA, relative CTS specificity, DIG as competitor; assay type: binding; details: competition with immobilized MBG-BSA; normalized to MBG = 100%
Method: as §1

[7] = Competitive ELISA, free CTS competitors overall (summary and footnote); assay type: binding; details: competitors RBG, CINO, OUB, DIG; Table 2
Method: as §1

[8] = tested on: pregnant Sprague-Dawley rats; experiment: DOCA/saline rat model of pre-eclampsia; assay type: in vivo; details: antibodies 2.2 mg/kg/d i.p. days 16-18 in PDS rats
Method: Female Sprague-Dawley rats (200-250 g, Charles River Laboratories) were acclimatized for 1 week, and mated with male Sprague-Dawley rats (275-300 g). Pregnancy was confirmed by the presence of vaginal plugs or by examination of vaginal smears. Each rat was housed separately.
Five groups of rats were studied (n=10 per group): Group 1 (NP): normal pregnant rats; Group 2 (PDS): pregnant rats injected i.p. initially with 12.5 mg of DOCA in a depot form, followed by a weekly i.p. injection of 6.5 mg of DOCA, and whose drinking water is replaced with 0.9% saline; Group 3 (NPM): Normal pregnant rats given daily injections of MBG (7.65 μg per kg body weight per day) once pregnancy was established on day four of the experiment; Group 4 (PDS-3E9): rats administered DOCA and saline as for Group 2, and also given the murine anti-MBG antibody 3E9 (2.2 mg per kg body weight per day) on days 16, 17, and 18 of pregnancy; and Group 5 (PDS-H3L2): rats administered DOCA and saline as for Group 2, and also given the humanized anti-MBG antibody H3L2 (2.2 mg per kg body weight per day) on days 16, 17, and 18 of pregnancy.
Systolic blood pressure (BP) was measured by tail cuff at days 17-19. At least 3 readings are taken after BP has stabilized, and the mean of these values was calculated. The reported BP values are the mean of the daily measurements. At 18-20 days of pregnancy, 24-hour urine was collected in the absence of food to avoid contamination of the measurement of the protein amount in urine by any fallen food particles. Each rat was housed separately in a metabolic cage during this portion of the study. The 24-hour protein excretion was measured and was normalized to creatinine. The rats were sacrificed after the last measurement on days 18-20, and blood samples were taken. The number of fetal pups was counted and examined. The mean number of pups and any developmental or histological abnormalities in the pups were assessed. Statistical analysis was performed using analysis of variance and Tukey's post hoc test. A p value ≤0.05 was considered statistically significant.

Na^+K^+-ATPase (NKA) = experiment: Na^+K^+-ATPase activity (Malachite Green Phosphate Assay); assay type: biochemical, rat; details: anti-MBG antibodies 1-100 μg/mL; FIG. 4
Method: Na^+K^+-ATPase (NKA) was purified from rat heart. The NKA was collected as the sarcolemmal/particulate (SLP) fraction and frozen.
Na^+K^+-ATPase activity was measured as follows: aliquots of SLP were mixed with Reaction Buffer (200 mM Tris-HCl, pH 7.5, 200 mM NaCL, 30 mM MgCl2, 60 mM KCl, 10 mM EGTA, 100 μg/mL PMSF, 2 μg/mL pepstatin A, and 2 μg/mL aprotinin). Reactions were performed with or without MBG and with or without anti-MBG antibodies (1-100 μg/mL). Ouabain was used as positive control for NKA inhibition. Tubes were prewarmed, and ATP was added. Reactions were stopped and were placed on ice.
Phosphate was assayed using the Malachite Green Phosphate Assay. Phosphate standard or sample was added to each well of a 96-well plate, followed by Reagent A. Reagent B was added, with mixing and incubation. OD was then read at 630 nm in a microplate spectrophotometer.

[9] = tested on: PKC-δ in the nucleus of primary rat cardiac fibroblasts; experiment: Inhibition of MBG-induced PKC-δ nuclear translocation (Western blot); details: MBG 10 nM; FIG. 2b
Method: MBG was incubated with an anti-MBG antibody prior to addition to cultured primary rat cardiac fibroblasts. Nuclei were isolated 30 min later and analyzed for amount of PKC-6.

B1: H3L2: humanized anti-MBG antibody, VH H3 (SEQ ID NO: 11) with VL L2 (SEQ ID NO: 13) (antibody, V domains shown)
VH: EVQLQESGPGLVKPSETLSLTCTVSGDSITSGYWNWIRQPPGKGLEYMGYISYSGTTYYNPSLKSRITISRDTSKNQYSLKLSSVTAADTAVYYCARARYGYGFDYWGQGTLVTVSS
VL: DVVMTQSPLSLPVTLGQPASISCRSSQSIVHSNRNTYLEWYQQRPGQSPRLLIYKVSNRFSGVPDRFSGSGSGTDFTLKISRVEAEDVGVYYCFQGSHVPLTFGGGTKVEIK
modifications: Humanized VH sequence; Humanized VL sequence
[1]
  binding affinity in direct ELISA: highest binding affinity
[2]
  Rel. CTS Specificity as % of MBG Binding: MBG: 100%
[3]
  Rel. CTS Specificity as % of MBG Binding: RBG: 0%
[4]
  Rel. CTS Specificity as % of MBG Binding: CINO: 0%
[5]
  Rel. CTS Specificity as % of MBG Binding: OUB: 0%
[6]
  Rel. CTS Specificity as % of MBG Binding: DIG: 0%
[7]
  reaction with CTS competitor molecules: did not react with any of the CTS competitor molecules
[8]; MBG 7.65 μg/kg/d in NPM rats
  % Malformed Pups: 0%
  No. Pups: 12.9 ± 3.2
[8]; normalized to creatinine, 18-20 days of pregnancy, MBG 7.65 μg/kg/d in NPM rats
  Urine Protein: 3.5 ± 0.7 mg/24 h
[8]; tail cuff, 17-19 d of gestation, MBG 7.65 μg/kg/d in normal pregnant rats (NPM), N = 10
  Blood Pressure-Final: 109.4 ± 11 mm Hg
Na^+K^+-ATPase (NKA)
  inhibitory effect of MBG on NKA in presence of antibody: reduce the inhibitory effect of MBG on NKA
[9]
  PKC-δ translocation into the nucleus, MBG plus antibody: reduced
